The source of these data is PMC8866119 (Nature, 2021).

The assay has as its target SARS-CoV-2 Omicron (B.1.1.529) RBD (SARS-CoV-2 Omicron B.1.1.529 (BA.1), strain).

B1: BD-923 (antibody, V domains shown)
VH: EVLLVESGGGLVQPGRSLRLSCTASGFTFEDYAMHWVRQAPGKGLEWVSGMSWNSGTIGYADSVRGRFIISRDNAKNSLYLQMNSLRAEDTALYYCGKDRGFGESLYYVMDVWGQGATVTVSS
VL: QSALTQPASVSGSPGQSITISCTGTSSDVGVYNYVSWYQQHPGKAPKLMIYNVSDRPSGVSNRFSGSKSGNTASLTISGLQAEDEADYYCSSYTSSSIVIFGGGTKLTVL
B1: the binding result is on record as “binds”.

B2: BD-914 (antibody, V domains shown)
VH: QVQLVQSGAEVTKPGSSVKVSCKTSGDTFSLYPISWVRQAPGQGLEWMGRIIPIVGIADYAQKFQGRVTITADKSTSTAYMELSSLRSEDTAIYYCARDGNQYYYDSGGDYYVNYWGQGTLITVSS
VL: DIQMTQSPSSLSASVGDRVTITCQASQDIRKDLNWYRQRPGKAPKLLIYDASNLETGVPSRFSGSGSGTHFTFTISGLQPEDVATYYCQQYDNVPVTFGPGTKVDIR
Regarding B2, the binding result is reported as “binds”.

B3: COV2-2389 (antibody, V domains shown)
VH: EVQLVESGGGLVQPGRSLRLSCAASGFTFDDYAMHWVRQAPGKGLEWVSGISWNSGTIGYADSVKGRFIISRDNAKNSLYLQMNSLRPEDTALYYCAKDIIRQGEDGMDVWGQGTTVTVSS
VL: DIQMTQSPSSLSASVGDRVTITCRASQNIASYLNWYQQKPGKAPKLLIYAASSLQSGVPSRFSGSGSGTDFTLTISSLQPEEFATYYCQQSYSTPWTFGQGTKVEIK
Take B3: the binding result was “binds”.

B4: S304 (antibody, V domains shown)
VH: EVQLVESGGGLVQPGGSLRLSCAASGFTFSSYDMHWVRQTTGKGLEWVSTIGTAGDTYYPDSVKGRFTISREDAKNSLYLQMNSLRAGDTAVYYCARGDSSGYYYYFDYWGQGTLLTVSS
VL: DIEMTQSPSSLSAAVGDRVTITCRASQSIGSYLNWYQQKPGKAPKLLIYAASSLQSGVPSRFSGSGSGTDFTLTISSLQPEDFAIYYCQQSYVSPTYTFGPGTKVDIK
As to B4, the binding result is reported as “binds”.

B5: BD55-5300 (antibody, V domains shown)
VH: QVQLVQSGAEVKKPGSSVKVSCKASGGSFTSHAVSWVRQAPGQGLEWMGVSIPLFGTAKYAQKFQGRVTITADESTSTVYMSLSNLRSGDTAVYYCARLFPNGTPTDLTAPSDYWGQGTLVTVSS
VL: DIQMTQSPSSLSASVGDRVTITCQASQDIGNYLNWYQQKPGKAPKLLIYDASHLETGVPSRFSGSASGTDFTLTISSLQPDDIATYYCQRYDDVPTYTFGQGTKLEIK
Turning to B5, the binding result is reported as “binds”.

B6: BD-796 (antibody, V domains shown)
VH: QVQLVQSGAEVKKPGSSVKVSCKASGGTFSSYAINWMRQAPGQGLEWMGGIIPILGIPNSAQKFQGRVTITADKSTSTAYMELSSLRSEDTAVYYCARMYNYDSSGLEADAFDIWGQGTMVTVSS
VL: QSVLTQPPSVSGAPGQRVTISCTGSSSNIGAGYDVHWYQQLPGTAPKLLIYGNSNRPSGVPDRFSGSKSGTSASLAITGLQAEDEADYYCQSYDSSLSGVVFGGGTKLTVL
As for B6, the binding result is listed as “binds”.

B7: BD-913 (antibody, V domains shown)
VH: QVQLVQSGAEVKKPGSSVKVSCKASGGTFSTYAISWVRQAPGQGLEWMGGIIPIVGIANDAQKFQGRVTITADKSTSTAYMELSSLRSEDTAVFYCARAQRKQWPVEDAYDIWGQGTMVTVSS
VL: QSVLTQPPSVSGAPGQRVTISCTGSSSNIGAGYDVHWYQQLPGTAPKLLIYGNSNRPSGVPDRFSGSKSGTSASLAITGLQAEDEADYYCQSYDSSLSGSVFGGGTKVTVL
Regarding B7, the binding result is on record as “binds”.

B8: BD-815 (antibody, V domains shown)
VH: EVQLVQSGPEVKKPGESLKISCKASGYSFISNWIGWVRQMPGKGLEWMGIIYPGDSDTRYSPSFQGQVTISADRSITTAYLQWSSLKASDTAIYYCARLGSSWYWVDYWGQGTLVTVSS
VL: SSELTQDPAVSVALGQTVRITCQGDSLRSYHASWYQQKPGQAPILVIYDKNNRPSGIPDRFSGSGSGNTASLTITGAQAEDEADYYCNSRDSSGDHLVFGTGTKVTVL
For the molecule B8, the binding result is “binds”.

B9: BD55-1294 (antibody, V domains shown)
VH: QLHLQESGPGLVKPSETLSLTCTVSGGSIFSSTYYWGWIRQTPGKGLEWIGSFYNGGSTYYNPSLESRVTISEDTSKNQFSLKLSSVTAADTAVYYCARDLSETASYHNWFDPWGQGTLVTVSS
VL: DIQLTQSPSFLSASVGDRITITCRASQAISNYLAWYQQKPGKAPKLLIYGASTLHSGVPSRFSGSHSGSEFTLTISGLQPEDFATYYCQQLNSFGPGTKVDIK
As for B9, the binding result is recorded as “binds”.

B10: C581 (antibody, V domains shown)
VH: EVQLVQSGAEVKKPGESLKISCKGSGYRFTSYWIAWVRQMPGKGLEWMGIIYPGDSDTRYSPSFQGQVTISADQSISTAYLQWSSLKASDTAMYYCARGGPPGGVKLELTDYWGQGALVTVSS
VL: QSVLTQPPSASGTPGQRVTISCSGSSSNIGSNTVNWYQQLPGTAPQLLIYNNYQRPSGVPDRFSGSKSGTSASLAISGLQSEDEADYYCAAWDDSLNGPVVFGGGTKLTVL
B10: the binding result was “binds”.

B11: C556 (antibody, V domains shown)
VH: QVQLVQSGAEVKKPGASVKVSCKASGYTFTYYYMHWVRQAPGQGLEWMGIINPSGGSTSYAQKFQGRVTMTRDTSTSTVYMELSSLRSEDTAVYYCARPLLPGETGSLNRLDYWGQGTLVTVSS
VL: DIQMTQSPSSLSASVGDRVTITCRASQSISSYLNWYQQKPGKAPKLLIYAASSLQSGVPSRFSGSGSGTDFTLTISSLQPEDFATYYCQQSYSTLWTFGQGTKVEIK
B11: the binding result is recorded as “binds”.

B12: DH1193 (antibody, V domains shown)
VH: QVQLVESGGGVVQPGRSLRLSCAASGFTFSNYGMHWVRQAPGKGLEWVTVISYDGSNKYYADSVKGRFTISRDNSKNTLYLQMNSLRAEDTAVYYCAKVLTWSIHPEDYYYGMDVWGQGTTVTVSS
VL: QSALTQPPSASGSPGQSVTISCTGTSSDVGGYNYVSWYQQHPGKAPKLMIYEVSQRPSGVPDRFSGSKSGNTASLTVSGLQAEDEADYYCSSYAGSNIGVFGGGTTLTVL
For the molecule B12, the binding result is given as “binds”.

B13: DH1044 (antibody, V domains shown)
VH: QVQLVESGGGVVQPGRSLRLSCAASGFTFSSYGMHWVRQAPGKGLEWVAVISFDGSNKYYVDSVKGRFTISRDNSKNTLYLQMNSLRAEDTAVYYCAKDMHNDYGDYVSYYFYYGMDVWGQGTTVTVSS
VL: QSVLTQPPSVSAAPGQKVIISCSGSSSNIGNNYVSWYQQLPGTAPKLLIYENNKRPSGIPDRFSGSKSGTSATLGITGLQTGDEADYYCGTWDSSLRTDVFGGGTKLIVL
Consider B13, for which the binding result was “binds”.

B14: BD-713 (antibody, V domains shown)
VH: EVQLVESGGGLVQPGRSLRLSCAASGFTFDDYAMHWVRQAPGKGLEWVSGMSWNSGTIGYADSVKGRFTIIRDNAKNSLYLQMIRLRAEDTALYYCAKASPRLDTAMAPFDYWGQGTLVTVSS
VL: SYVLTQPPSVSVAPGKTARITCGGNNIGSKSVHWYQQKPGQAPALVIYYDNDRPSGLPERFSGSNSGNTATLTISRVEAGDEADYYCQVWHSSSDSLVFGGGTKLTVL
Take B14: the binding result is “binds”.

B15: BD55-3372 (antibody, V domains shown)
VH: EVHLVESGGGLVKPGGSLRLSCAASGFTFSNYAMNWVRQAPGKGLQWVSSITGSSSFIFYADSVKGRFTIVRDNAQNSLYLQMNSLRDEDTAVYYCARERDDYDTRLDWGQGTLVTVSS
VL: QPMLTQPPSVSGAPGQTVTISCVGSSSNIGAGYEVHWYQQLPGTAPKRLLSGNSDRPSGVPDRFSGSKSGTSASLAITGLQADDEADYYCQSYDSSLSLSAVVFGGGTKLTVL
For the molecule B15, the binding result is on record as “binds”.

B16: C576 (antibody, V domains shown)
VH: QVQLVQSGAEVKKPGSSVKVSCKASGGTFSIYAISWVRQAPGQGLEWMGGIIPILGTANYAQKFQGRVTITADESTSTAYMELSSLRSEDTAVYYCASFHVAYGDYIPFDYWGQGTLVTVSS
VL: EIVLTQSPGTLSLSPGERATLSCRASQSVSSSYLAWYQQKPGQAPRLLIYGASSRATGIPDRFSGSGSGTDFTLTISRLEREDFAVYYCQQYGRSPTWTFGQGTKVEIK
Regarding B16, the binding result is on record as “binds”.

B17: BD55-4325 (antibody, V domains shown)
VH: QAQLVQSGAEVKKPGASVKVSCEAIGYAFKTYGISWVRQAPGQGLEWVGWISGHDGTTNYAQKFQGRVTLTTDTSTNTAFLEVKSLRSDDTAVFYCARDKAYSGYDYWSTIFDYWGQGTLVTVST
VL: SYVLTQPPSVSVAPGKTATITCGGNNIRSKSVQWFQQRPGQAPILVLYYDTDRPSGIPERFSGSNSGNTATLTISRVEAGDEADYYCQVWDSTTDHYLFGTGTKVTVL
With B17, the binding result is listed as “binds”.

B18: BD55-1831 (antibody, V domains shown)
VH: QVQLQESGPGLVKPSQTLSLTCTVSGGSISNGDYYWSWIRQPPGKGLEWIGYIHNSGSTYKKLSLRSRLTISVDTSKNQFSLKLSSVTAADTAVYYCARTASPSGAWYFDFWGRGTLVTVSS
VL: SYVLTQPPSVSVAPGQTARITCGGNDIGSKNVHWYQQKPGQAPLLVVYDDTDRPSGIPERFSGSNSGNPATLTISRVEAGDEADYYCQVWDSSFDHVIFGGGTKLTVL
Take B18: the binding result is given as “binds”.

B19: BD-907 (antibody, V domains shown)
VH: QVQLVQSGSELKKPGASVKVSCKASGYTFSSYYLNWVRQAPGQGLEWMGWIDTNTGNPTYAQAFTGRFVFSLDTSVSTAYLQIGSLQANDTAVYYCAREGGGWSGLYYYFGMDVWGQGTTVTVSS
VL: EIVLTQSPGTLSLSPGERATVSCRASQSIGSNYLAWYQQKPGQAPRLLIYGASSRATGIPDRFSGSGSGTDFTLTISRLEPEDFAVYYCQQYGSSPPYTFGQGTKLEIK
As to B19, the binding result is on record as “binds”.

B20: COV2-2103 (antibody, V domains shown)
VH: EVQLVESGGGLVQPGGSLRLSCAASGFTFSRHWMTWVRQAPGKGLEWVANIKQDGSEKYYVDSVKGRLTISRDNAKNSLYLQMNSLRAEDTAVYYCARLGFYYGGADYWGQGTLVTVSS
VL: NFMLTQPHSVSESPGKTVTISCTGSSGSIASNYVQWYQQRPGSAPTTVISEDNQRPSGVPDRFSGSIDSSSNSASLTISGLKTEDEADYYCQSYDGINRAWVFGGGTKLTVL
With B20, the binding result was “binds”.

B21: BD-692 (antibody, V domains shown)
VH: EVQLVESGGGLVQPGGSLRLSCAASGFTFSSHGMNWVRQAPGKGLEWVSYISSRDSTIYYADSVKGRFTISRDNAKNSLYLQMNSLRDEDTAVYYCARDNSDYDYSFGAYYFDYWGQGTLVTVSS
VL: EIVLTQSPATLSLSPGERATVSCRASQSVSNFLAWYQQKPGQAPRLLIHDASNRATGIPARFSGSGSGTDFTLTISSLEPEDFAVYYCQQRRNWPPVTFGQGTRLEIK
For B21, the binding result is listed as “binds”.

B22: BD55-3525 (antibody, V domains shown)
VH: EVQVVESGGGLVKPGGSLRLSCAGSGFTFNYAWMNWVRQAPGKGLEWVGRIKSETGGGTTDYAAPVRGRFTISRDDSKDTVFLQMNSLKTEDTAVYYCTTEATVTSWDAFDVWGQGTLVTVST
VL: QSVLTQPPSASGTSGQRVTISCSGSSSNIGSNTVNWYQQIPRRAPKLLIYRNNQRPSGVPDRFSASKSGTSASLAISGLHSEDEADYYCAAWDDRLNGFVFGTGTKVTVL
As for B22, the binding result is “binds”.
